For assay [1], the target named is T1, CD3 on the surface of human T cells (human, UniProt P07766 23-207).
T1 construct: whole, on cells; Part of the CD3/TCR complex on cells; also called CD3 epsilon
Briefly: flow cytometry on primary human T cells; column head 'Affinity CD3'. The procedure:
(§1) Binding of exemplary B7H3-targeting constrained CD3 engaging constructs set forth in Table E3 to CD3 on the surface of primary T cells or B7H3-expressing cells (A375) was assessed by flow cytometry. The T cells were primary T-cells that were negatively enriched from PBMCs isolated from healthy human donor peripheral blood leukopaks. Bound construct was detected with fluorophore-conjugated secondary antibodies specific for the human Fc (anti-human IgG APC secondary antibody) and binding was measured by flow cytometry. Cells incubated with secondary antibody only served as negative controls. Binding was compared to Dual-affinity Re-targeting Antibody (DART)-monomeric Fc format targeting B7H3 and CD3 (DART-Fc B7H3xCD3; see e.g. WO2017030926A1).
(§2) Table E4 summarizes the affinity of exemplary molecules for B7H3 or CD3, as determined from flow cytometry, in these studies.
For orientation: A flow cytometer gives signals particle by particle.

The target of assay [2] is T2, human B7H3 (CD276) on the cell surface (human, UniProt Q5ZPR3 29-534).
T2 construct: B7H3 on A375 and other B7H3-positive or transfected cells
T2 sequence: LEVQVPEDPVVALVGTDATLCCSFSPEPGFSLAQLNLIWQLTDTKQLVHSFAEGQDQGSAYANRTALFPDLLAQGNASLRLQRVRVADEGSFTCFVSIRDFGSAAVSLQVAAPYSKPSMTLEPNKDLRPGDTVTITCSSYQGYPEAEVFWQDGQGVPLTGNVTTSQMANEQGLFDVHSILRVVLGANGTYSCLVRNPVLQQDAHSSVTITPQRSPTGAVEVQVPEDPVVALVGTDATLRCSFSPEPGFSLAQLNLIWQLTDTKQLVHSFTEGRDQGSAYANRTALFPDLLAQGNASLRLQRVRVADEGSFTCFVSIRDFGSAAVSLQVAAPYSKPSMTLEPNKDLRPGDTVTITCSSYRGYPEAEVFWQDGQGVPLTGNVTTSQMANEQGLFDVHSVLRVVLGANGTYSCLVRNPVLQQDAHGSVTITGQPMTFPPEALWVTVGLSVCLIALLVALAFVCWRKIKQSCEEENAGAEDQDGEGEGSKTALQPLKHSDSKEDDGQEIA
Briefly: flow cytometry titration on A375 cells (B7H3+); column head 'Affinity B7H3' (apparent). The procedure: as §1, §2

Positions count from the first letter of the chain named.

T1 sequence (P07766 23-207): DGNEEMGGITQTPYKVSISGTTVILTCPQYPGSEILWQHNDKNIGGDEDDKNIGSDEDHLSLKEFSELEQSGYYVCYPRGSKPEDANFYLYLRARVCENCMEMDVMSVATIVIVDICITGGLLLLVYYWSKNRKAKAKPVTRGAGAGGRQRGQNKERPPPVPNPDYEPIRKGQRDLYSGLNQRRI

B1: cx4136 (bispecific antibody)
chain 1: EVQLVESGGGEVQPGGSLRLSCAASGSTFSSYHMSWFRQAPGKQREPVATSHHGGTTNYAGSVKGRFTISRDNAKNTVYLQMNTLRAEDTAVYYCKADHGYQGRGYWGQGTLVTVKPDKTHTCPPCPAPGGPSVFLFPPKPKDTLMISRTPEVTCVVVDVSHEDPEVKFNWYVDGVEVHNAKTKPREEQYNSTYRVVSVLTVLHQDWLNGKEYKCKVSNKALPAPIEKTISKAKGQPREPQVYTLPPCRDELTKNQVSLWCLVKGFYPSDIAVEWESNGQPENNYKTTPPVLDSDGSFFLYSKLTVDKSRWQQGNVFSCSVMHEALHNHYTQKSLSLSPTGGGGGSGGGGGSGGGGGSEVQLVESGGGLVQPGGSLRLSCAASGFTFNTYAMNWVRQAPGKCLEWVARIRSKYNNYATYYADSVKGRFTISRDDAKNTLYLQMSSLRAEDTAVYYCVRHGNFGNSYVSWFAYWGQGTLVTVKPEVQLVESGGGEVQPGGSLRLSCAASGSTFSSYHMSWFRQAPGKQREPVATSHHGGTTNYAGSVKGRFTISRDNAKNTVYLQMNTLRAEDTAVYYCKADHGYQGRGYWGQGTLVTVKP
chain 2: DKTHTCPPCPAPGGPSVFLFPPKPKDTLMISRTPEVTCVVVDVSHEDPEVKFNWYVDGVEVHNAKTKPREEQYNSTYRVVSVLTVLHQDWLNGKEYKCKVSNKALPAPIEKTISKAKGQPREPQVCTLPPSRDELTKNQVSLSCAVKGFYPSDIAVEWESNGQPENNYKTTPPVLDSDGSFFLVSKLTVDKSRWQQGNVFSCSVMHEALHNRYTQKSLSLSPTGGGGGSGGGGGSGGGGGSQAVVTQEPSLTVSPGGTVTLTCGSSTGAVTTSNYANWVQQKPGQAFRGLIGGTNKRAPGVPARFSGSLLGGKAALTISGAQPEDEADYYCALWYSNHWVFGCGTKLTVL
With B1, the Kd in assay [1] is greater than 200 nM; in assay [2], 0.368 nM.

B2: cx4137 (bispecific antibody)
chain 1: B1 chain 1
chain 2: DKTHTCPPCPAPGGPSVFLFPPKPKDTLMISRTPEVTCVVVDVSHEDPEVKFNWYVDGVEVHNAKTKPREEQYNSTYRVVSVLTVLHQDWLNGKEYKCKVSNKALPAPIEKTISKAKGQPREPQVCTLPPSRDELTKNQVSLSCAVKGFYPSDIAVEWESNGQPENNYKTTPPVLDSDGSFFLVSKLTVDKSRWQQGNVFSCSVMHEALHNRYTQKSLSLSPTGGGGGSGGGGGSGGGGGSQAVVTQEPSLTVSPGGTVTLTCGSSTGAVTTSNYANWVQQKPGQAFRGLIGGTNKRAPGVPARFSGSLLGGKAALTISGAQPEDEADYYCALWYSNHWVFGCGTKLTVLEVQLLESGGGEVQPGGSLRLSCAASGFSFSINAMGWYRQAPGKRREFVAAIESGRNTVYAESVKGRFTISRDNAKNTVYLQMSSLRAEDTAVYYCGLLKGNRVVSPSVAYWGQGTLVTVKP
notes: chain 2 ends in the 4-1BB sdAb RH3v5-1
Take B2: the results for the Kd in assay [1] and in assay [2] were greater than 200 nM and 0.375 nM, respectively.

B3: cx3855 (bispecific antibody)
chain 1: B1 chain 1 with G343S, S346G, G348I, G349E, G350P, G351D, S352I, G355S
chain 2: B2 chain 2 with G226S, S229G, G231I, G232E, G233P, G234D, S235I, G238S
notes: chain 2 ends in the 4-1BB sdAb RH3v5-1; Printed composition is the same as cx4904
Turning to B3, the Kd was greater than 200 nM in assay [1] and 0.395 nM in assay [2].

B4: cx4641 (bispecific antibody)
chain 1: EVQLVESGGGEVQPGGSLRLSCAASGSTFSSYHMSWFRQAPGKQREPVATSHHGGTTNYAGSVKGRFTISRDNAKNTVYLQMNTLRAEDTAVYYCKADHGYQGRGYWGQGTLVTVKPDKTHTCPPCPAPGGPSVFLFPPKPKDTLMISRTPEVTCVVVDVSHEDPEVKFNWYVDGVEVHNAKTKPREEQYNSTYRVVSVLTVLHQDWLNGKEYKCKVSNKALPAPIEKTISKAKGQPREPQVYTLPPCRDELTKNQVSLWCLVKGFYPSDIAVEWESNGQPENNYKTTPPVLDSDGSFFLYSKLTVDKSRWQQGNVFSCSVMHEALHNHYTQKSLSLSPTGGSGGGGIEPDIGGSGGSEVQLVESGGGLVQPGGSLRLSCAASGFTFNTYAMNWVRQAPGKCLEWVARIRSKYNNYATYYADSVKGRFTISRDDAKNTLYLQMSSLRAEDTAVYYCVRHGNFGNSYVSWFAYWGQGTLVTVKPQLQLQESGGGLVQAGDSLRLSCAASGFSFGSNVMMWVRQAPGKGPEWVSTIYSSGTGTFYADSVKGRFTISRNNAKNTLYLQMNSLKPDDTAVYYCATSGPVRGWGPRSQGTLVTVKP
chain 2: B1 chain 2 with G226S, S229G, G231I, G232E, G233P, G234D, S235I, G238S
notes: Printed composition is the same as cx4645
As to B4, the Kd in assay [1] was greater than 200 nM; in assay [2], 0.379 nM.

B5: cx3090 (bispecific antibody, not shown: a dimerising Fc or GST)
chain 1: EVQLVESGGGEVQPGGSLRLSCAASGSTFSSYHMSWFRQAPGKQREPVATSHHGGTTNYAGSVKGRFTISRDNAKNTVYLQMNTLRAEDTAVYYCKADHGYQGRGYWGQGTLVTVKPGGSGGGGIEPDIGGSGGSEVQLVESGGGLVQPGGSLRLSCAASGFTFNTYAMNWVRQAPGKCLEWVARIRSKYNNYATYYADSVKGRFTISRDDAKNTLYLQMSSLRAEDTAVYYCVRHGNFGNSYVSWFAYWGQGTLVTVKPEVQLVESGGGEVQPGGSLRLSCAPSERTFSTYTMGWFRQAPGKEREFVAVVNWGGGSKYYAESVKGRFTISRDNAKNTVYLQMSSLRAEDTAVYYCAAGGAYSGPYYDTRQYTYWGQGTLVTVKP
chain 2: GGSGGGGIEPDIGGSGGSQAVVTQEPSLTVSPGGTVTLTCGSSTGAVTTSNYANWVQQKPGQAFRGLIGGTNKRAPGVPARFSGSLLGGKAALTISGAQPEDEADYYCALWYSNHWVFGCGTKLTVLEVQLLESGGGEVQPGGSLRLSCAASGFSFSINAMGWYRQAPGKRREFVAAIESGRNTVYAESVKGRFTISRDNAKNTVYLQMSSLRAEDTAVYYCGLLKGNRVVSPSVAYWGQGTLVTVKP
notes: as for B2
For the molecule B5, the figures for the Kd in assay [1] and in assay [2] were greater than 200 nM and 0.523 nM, respectively.

B6: cx3243 (bispecific antibody, not shown: a dimerising Fc or GST)
chain 1: B5 chain 1 with S120G, G123S, I125G, E126G, P127G, D128G, I129S, S132G
chain 2: B5 chain 2 with S3G, G6S, I8G, E9G, P10G, D11G, I12S, S15G
notes: as for B2
For B6, the figures for the Kd in assay [1] and in assay [2] were greater than 200 nM and 0.477 nM, respectively.

B7: cx3072 (bispecific antibody)
chain 1: EVQLVESGGGEVQPGGSLRLSCAASGSTFSSYHMSWFRQAPGKQREPVATSHHGGTTNYAGSVKGRFTISRDNAKNTVYLQMNTLRAEDTAVYYCKADHGYQGRGYWGQGTLVTVKPPGGGGDKTHTCPPCPAPELLGGPSVFLFPPKPKDTLMISRTPEVTCVVVDVSHEDPEVKFNWYVDGVEVHNAKTKPREEQYNSTYRVVSVLTVLHQDWLNGKEYKCKVSNKALPAPIEKTISKAKGQPREPQVYTLPPCRDELTKNQVSLWCLVKGFYPSDIAVEWESNGQPENNYKTTPPVLDSDGSFFLYSKLTVDKSRWQQGNVFSCSVMHEALHNHYTQKSLSLSPTGGGGGSGGGGGSGGGGGSEVQLVESGGGLVQPGGSLRLSCAASGFTFNTYAMNWVRQAPGKCLEWVARIRSKYNNYATYYADSVKGRFTISRDDAKNTLYLQMSSLRAEDTAVYYCVRHGNFGNSYVSWFAYWGQGTLVTVKPGGGGEVQLVESGGGEVQPGGSLRLSCAPSERTFSTYTMGWFRQAPGKEREFVAVVNWGGGSKYYAESVKGRFTISRDNAKNTVYLQMSSLRAEDTAVYYCAAGGAYSGPYYDTRQYTYWGQGTLVTVKP
chain 2: not shown
notes: IgG1-Hole 294, 298 or 446; VH13 237; VL10 265)
On to B7, for which the Kd was greater than 200 nM in assay [1] and 0.539 nM in assay [2].

Values taken from US20230124851A1 (INHIBRX LNC, published 2023).
